B1: Double-stranded RNA-specific adenosine deaminase, residues 296 to 358; numbered along this chain, P55265 (parent)
chain: MAEIKEKICDYLFNVSDSSALNLAKNIGLTKARDINAVLIDMERQGDVYRQGTTPPIWHLTDK
B2: COUP transcription factor 1, residues 83 to 159; numbered along this chain, P10589 (parent)
chain: HIECVVCGDKSSGKHYGQFTCEGCKSFFKRSVRRNLTYTCRANRNCPIDQHHRNQCQYCRLKKCLKVGMRREAVQRG

Variants of: B1
Assay: abundance fitness (aPCA) (normalised: wild type 0, dead -1); higher = more abundant; growth selection in yeast, the domain comes from the species named
Settings: Homo sapiens

Abundance fitness of substitutions, site by site:
P55: E -0.043, Q -0.486, A -0.243, S -0.288, Y -0.491, I -0.547, R -0.698, K -0.49, H -0.435, C -0.344, V -0.298, D 0.06, W -0.721, M -0.632, T -0.25, L -0.594, G -0.434, N -0.006, F -0.396
D62: I -0.708, M -0.409, Y -0.437, A 0.053, S -0.083, Q 0.017, T -0.15, L -0.437, N -0.432, E 0.072, P -0.333, R -0.167, C -0.185, G -0.19, K 0.002, W -0.445
G52: C -0.525, N -0.072, S -0.387, E -0.12, F -0.901, W -0.518, V -0.638, D -0.105, K -0.367, T -0.659, I -0.779, R -0.489, H -0.234, A -0.342, Y -0.765, M -0.812, L -0.764
W58: D -0.434, N -0.296, C -0.384, R -0.242, K -0.303, T -0.251, P -0.409, M -0.362, H -0.278, S -0.254, F -0.234, A -0.426, I -0.366, V -0.488, Y -0.095, Q -0.152
T61: P -0.411, D -0.32, F -0.737, H -0.344, E -0.483, S -0.052, W -0.808, M -0.182, R -0.282, N -0.124, Q -0.52, I -0.818, V -0.193
I57: W -0.476, G -0.449, R -0.125, Y -0.846, D -0.191, C -0.567, E -0.257, M -0.008, F -0.637, Q -0.181, K -0.149, H -0.185, T -0.035, P -0.481, S -0.265, V -0.108, A -0.316, N -0.352, L -0.281
L60: W -0.793, A -0.196, E -0.226, N -0.425, K -0.494, V -0.516, G -0.436, Q -0.764, F -0.598, M -0.295, D -0.356, Y -0.577, I -0.628, T -0.551, S -0.437, R -0.45, C -0.662
H59: T -0.052, L -0.613, D -0.375, N -0.224, I -0.525, K 0.294, V -0.282, P -0.524, Q -0.175, E -0.301, M -0.259, S 0.263, F -0.329, A 0.288, C 0.095, W -0.972, G 0.215, R 0.281, Y -0.466
T54: N 0.306, F -0.429, L -0.448, P -0.722, W -0.513, S 0.127, R -0.18, V -0.204, C -0.148, K -0.024, A -0.04, H 0.045, Y -0.386, E 0.093, G -0.32
T53: A -0.033, I -0.744, R 0.238
R50: T -0.406, L -0.684, Q 0.036, H -0.274, M -0.555, K 0.12, S -0.019, N -0.379, G -0.453, I -0.798, W -0.722, V -0.381, F -0.601, Y -0.985, E -0.392
Q51: S 0.401, G -0.215, A -0.162, H -0.094, D 0.22, K 0.053, N -0.051, F -0.658, I 0.088, C 0.051, T 0.494, P -0.861, W -0.407, V 0.208, E 0.176
K63: C -0.258, G -0.442, H -0.374, Y -0.634, D -0.162, F -0.217, R 0.032, S -0.367, M -0.619, N -0.302, T -0.297, E -0.234, P -0.341, Q -0.79
P56: D -0.447, C -0.511, F -1.13, M -1.28, R -0.686, T -0.013, Y -0.693, W -0.818, K -0.539, L -0.656, V -0.099, S -0.57, Q -0.541, I -0.263

Variants of: B2
Assay: as above
Settings: Homo sapiens

Abundance fitness, by site and new letter:
V6: M -1.06, G -0.807, Q -0.802, F -0.581, D -0.736, A -0.458, T -0.743, E -0.836, K -1.09, R -0.974, Y -0.439, I -0.074, S -0.819, L -0.889, P -0.705, W -0.545
V5: P 0.381, I 0.314, D -0.081, C -0.027, H 0.185, F 0.199, R 0.295, N 0.152, S 0.149, Q 0.252, T 0.104, E -0.042, K 0.31, A 0.228, L 0.192, Y 0.393, W 0.003, G 0.012
C7: Y -0.268, M -0.84, L -0.843, R -0.802, N -0.562, F -0.942, V -0.597, P -1.17, E -0.659, A -0.692, S -0.803, D -0.867, W -0.821, T -0.95, I -0.912, G -0.733, K -0.509
I2: Y 0.237, G -0.927, C -0.186, W -0.502, E -0.379, A -0.829, D 0.065, V -0.648, K -0.329, R -0.413, Q -0.714, M -0.078, N 0.05
E3: R -0.408, G -0.402, S -0.052, T -0.058, W -0.319, A -0.01, F -0.173, K -0.226, I -0.108, H -0.15, P -0.279, V -0.536, M -0.07, N -0.222, D 0.006, C -0.072
C4: G -0.731, S -0.515, A -1.04, I -0.998, Q -1.25, W -0.965, L -1.05, V -0.672, K -0.775, H -1.23, F -0.939, N -1.17, T -0.635, P -0.833, Y -0.9, D -0.724, M -0.521
H1: C -0.258, Y 0.262, V -0.035, K 0.374, G 0.277, S -0.33, Q 0.121, T 0.074, R 0.013, L 0.03, D 0.6, N 0.07, A -0.078, E -0.007
G8: D 0.177, L 0.042, S 0.077, K 0.165, M -0.078, R 0.014, N -0.045, C -0.182, A 0.016, Q 0.146, H -0.22
